Source: patent US20260167685A1, “NEW MICROPEPTIDE HMBJ AND USE THEREOF” (NANJING ANJI BIOTECHNOLOGY CO., LTD, priority 2023, published 2026)

Experiments:
Type in all cases: cell-based
[1] = system: human hepatic stellate cells LX-2; experiment: inhibitory effect on human liver fibrosis cell model (TGFβ1-stimulated, qPCR); settings: LX-2 cells, 10 nmol recombinant human TGFβ1, different concentrations of synthetic micropeptide, co-incubation 24 h, qPCR (FIG. 11)
Text: (§1) Compared with the related art, this application has the following beneficial effects: • (1) This application provides a lncRNA and a nucleotide sequence thereof. Through analysis of sequencing data for multiple organ fibroses, it is discovered that the lncRNA molecule ENSG00000272654 is expressed at a low level in the organ fibroses. […] The lncRNA molecule can be used for diagnosis or auxiliary diagnosis and treatment or auxiliary treatment of organ fibrosis, or can be used in preparation of a reagent for diagnosis or auxiliary diagnosis and treatment or auxiliary treatment of organ fibrosis. • (2) This application provides a nucleotide sequence of an open reading frame of the lncRNA. The nucleotide sequence can code new micropeptide HMBJ. […] Then, the extracted total RNA is reverse-transcribed by using a reverse transcription reagent, and then mRNA expressions of gene Col1a1, TGFβ1, and CTGF in the three organ fibrosis cell models are detected by real-time fluorescence quantification PCR. […]
In this example, inhibitory effect of the micropeptide HMBJ on a human liver fibrosis cell model was detected. […] Then, the cells were resuspended in a complete medium and counted by using a cell counter. […]

[2] = system: human renal proximal tubule cells HK2; experiment: inhibitory effect on human renal fibrosis cell model (TGFβ1-stimulated, qPCR); settings: 10 nmol recombinant human TGFβ1, different concentrations of synthetic micropeptide, co-incubation 24 h, qPCR (FIG. 12)
Text: as §1
Human renal proximal tubule cells HK2 were cultured in a cell incubator at 37° C. under 5% CO2 until a cell density was 80% or more. […] Then, the cells were resuspended in a complete medium and counted by using a cell counter. […]

[3] = system: human non-small cell lung cancer cells A549; experiment: inhibitory effect on human pulmonary fibrosis cell model (TGFβ1-stimulated, qPCR); settings: 10 nmol recombinant human TGFβ1, different concentrations of synthetic micropeptide, co-incubation 24 h, qPCR (FIG. 13)
Text: as §1
Human non-small cell lung cancer cells A549 were cultured in a cell incubator at 37° C. under 5% CO2 until a cell density was 80% or more. […] Then, the cells were resuspended in a complete medium and counted by using a cell counter. […]

Measured: inhibitory effect on mRNA expressions of gene Col1a1, TGFβ1, and CTGF

B1: HMBJ: new human endogenous micropeptide of 71 amino acids (SEQ ID NO. 3) coded by lncRNA ENSG00000272654, made by solid-phase synthesis (peptide, listed as Homo sapiens)
chain: MEAKLRVLVPAETGISETHDEHETFSLSLGSHSATQMNGVTFPHVTLLSLLLRAGPLHNLFKCSQLSLAPT
significant inhibitory effect: all assays above
